Measured values reported in US20110250284A1, “Nanoparticles for Use as Synthetic Platelets and Therapeutic Agent Delivery Vehicles” (priority 2008, published 2011).

Tested on: NSCs
Assay: NSC behavior cultured near hydrogels with CNTF delivery component
Type: cell-based
Conditions: seven days
Method: NSCs were positive for green fluorescent protein (GFP) and were maintained in high glucose DMEM/F12 (1:1) supplemented with 20 ng/mL mouse epidermal growth factor (EGF), N-2, B-27, penicillin/streptomycin, and L-glutamine.
To test the response of NSCs cultured near but not directly on or within hydrogels with a CNTF delivery component, NSCs were seeded as neurospheres in chamber slides at a concentration of 5×10^5 cells/mL. A hydrogel containing acrylated nanoparticles encapsulating an estimated 10 ng of CNTF was added to the culture medium. In other experiments a hydrogel containing either blank (BSA-only) nanoparticles, no nanoparticles, or unencapsulated CNTF at 10 ng/mL was added, and no hydrogel was added in the negative control. Throughout the seven days of the experiment, the migration of NSCs out of the neurospheres was measured using the fluorescence of the GFP NSCs. At the end of seven days, all hydrogels were removed. Cells were fixed for analysis in 10% formalin for 1 hour and rinsed in 1× PBS. Differentiation was quantified by immunocytochemistry as described below.
Samples were blocked (3% normal goat serum, 5% BSA, 0.3% TritonX-100) for 1 hour, then rinsed and incubated with primary antibodies against mouse β-III-tubulin (B3T; Promega; 1:1000), mouse nestin (BD Biosciences; 1:200), rabbit glial fibrillary acidic protein (GFAP; Sigma; 1:160), rabbit oligodendrocyte transcription factor 1 (Olig1; Chemicon; 1:200), or caspase-3 (Sigma, 1:10) for 2 hours. They were then rinsed and incubated with species-specific Alexa Fluor 647 secondary antibodies (Molecular Probes; 1:200) for 1 hour, and rinsed again. Cells in chamber slides were also stained with DAPI (1:35000) for 5 minutes, rinsed again, and stored in 1× PBS at 4° C. […]
The slides were viewed using a Zeiss Axiovert 200 microscope with a Zeiss Mrc camera, and images were captured through Axiovert 4.0 software. Expression of each marker was quantified by the ratio of the area of fluorescence for each marker to the area of fluorescence for the GFP labeling. Results are expressed as mean±coefficient of variation.

B1: CNTF: Recombinant human ciliary neurotrophic factor with BSA carrier (R&D Systems) (protein, UniProt P26441 1-200, looked up)
Ciliary neurotrophic factor: MAFTEHSPLTPHRRDLCSRSIWLARKIRSDLTALTESYVKHQGLNKNINLDSADGMPVASTDQWSELTEAERLQENLQAYRTFHVLLARLLEDQQVHFTPTEGDFHQAIHTLLLQVAAFAYQIEELMILLEYKIPRNEADGMPINVGDGGLFEKKLWGLKVLQELSQWTVRSIHDLRFISSHQTGIPARGSHYIANNKKM
modifications: BSA carrier
With B1 the “migration of NSCs out of neurospheres” value (hydrogel added to culture medium) was “increased migration”, the GFAP expression (immunocytochemistry) was “upregulation of GFAP” and the nestin expression (immunocytochemistry) was “downregulation of nestin”.
